# B1: ΦSH2 full length: Full length C-terminally 6×His-tagged Staphylococcus haemolyticus φSH2 prophage endolysin (1-493), SEQ ID NO:2 (protein)
# chain: MKTQAEINKRLDAYRKGTVDSPYRVKVWTSYDNRFYPMEPGCIDVDKSFHAQCADLTIDYILWLTDNEFRIRGNAKDAINPKKNKLPEGWKIVLNRPSTVPRKGWIAVFTDGTYWEYGHIGMVYDGGNTSRFQILEQNWNGWANKKPSLRWDNYYGLTHFIVPPVAKENKAVSSSKQQAPKQKVKKASTKKALPKITKHITGYNMDKRGYNPKGVVLHNDAGGMNYKQYYNNLVNANYDRLARGIAHAYVDRTGIWEAIDESRIAWHVADGTRPGSGNHDFYGIEVNQSLRASDKEFLENEQAVFQFAAEKLKKWGLPANRNTVRLHNEFSQTSCPHRSMVLHTGLDPLYHSITEHARLKLKDYFIKQIRAYMDGKKPTSKVVVSKPGSASTPATRKDANGYRENPHGTLYKEEHATFTANANIITRYVGPFTNMPQAGILKAGQTIIYDEVMKQDGYIWVGYTAYNGKRVYLPVRKWNRETDSVGKLWGVISLEHHHHHH
# modifications: C-terminal 6xHis tag; Bacteriophage Phi SH2
# How the values were obtained:
# [1] = test system: staphylococcal strains (MRSA strains, mastitis isolates, coagulase negative staphylococci); assay: Plate lysis assay, whole set of strains; format: cell-based, Staphylococcus; conditions: 100 to 3.125 pmoles spotted
# Procedure: (§1) Purified proteins (100 pmoles in a 10 μl volume and five two-fold serial dilutions thereof) were spotted onto a freshly spread lawn of log phase staphylococcal cells (OD600 nm of 0.4-0.6, diluted ¼ before plating) that had air dried for 15 min on gridded TSA (tryptic soy agar) plates. The spotted plates were air dried for 10 min in a laminar flow hood and incubated overnight at 37° C. Cleared spots indicating cell lysis were scored within 24 hours of plating the cells.
# (§2) The φSH2 full length enzyme and the A1 construct were further tested in plate lysis assays against a set of different staphylococcal strains, including MRSA strains (NRS 382-385), mastitis isolates (305, Tanji 1-26), and coagulase negative staphylococci (non S. aureus) (Table 2). The same molar amounts of both proteins (ranging from 100 pmoles to 3.125 pmoles, in a volume of 10 ul) were spotted onto lawns of mid log phase cells of the respective strains, and the plates were analyzed for lysis zones the next day.
# [2] = test system: S. aureus NRS 385; assay: Plate lysis assay; format: cell-based; conditions: S. aureus NRS 385 (MRSA); 100 pmoles and 2-fold serial dilutions spotted on bacterial lawns
# Procedure: as §1, §2
# [3] = test system: S. xylocus; assay: Plate lysis assay; format: cell-based; conditions: 100 pmoles and 2-fold serial dilutions spotted on bacterial lawns
# Procedure: as §1, §2
# [4] = test system: S. aureus Tanji 20; assay: Plate lysis assay; format: cell-based; conditions: 100 pmoles and 2-fold serial dilutions spotted on bacterial lawns
# Procedure: as §1, §2
# [5] = test system: S. aureus Tanji 1; assay: Plate lysis assay; format: cell-based; conditions: 100 pmoles and 2-fold serial dilutions spotted on bacterial lawns
# Procedure: as §1, §2
# [6] = test system: S. chromogenes; assay: Plate lysis assay; format: cell-based; conditions: 100 pmoles and 2-fold serial dilutions spotted on bacterial lawns
# Procedure: as §1, §2
# [7] = test system: S. warneri; assay: Plate lysis assay; format: cell-based; conditions: 100 pmoles and 2-fold serial dilutions spotted on bacterial lawns
# Procedure: as §1, §2
# [8] = test system: S. aureus NRS 382; assay: Plate lysis assay; format: cell-based; conditions: S. aureus NRS 382 (MRSA); 100 pmoles and 2-fold serial dilutions spotted on bacterial lawns
# Procedure: as §1, §2
# [9] = test system: S. aureus Tanji 19; assay: Plate lysis assay; format: cell-based; conditions: 100 pmoles and 2-fold serial dilutions spotted on bacterial lawns
# Procedure: as §1, §2
# [10] = test system: S. hyicus; assay: Plate lysis assay; format: cell-based
# Procedure: as §1, §2
# [11] = test system: S. epidermidis; assay: Plate lysis assay; format: cell-based; conditions: 100 pmoles and 2-fold serial dilutions spotted on bacterial lawns
# Procedure: as §1, §2
# [12] = test system: S. aureus Tanji 26; assay: Plate lysis assay; format: cell-based; conditions: 100 pmoles and 2-fold serial dilutions spotted on bacterial lawns
# Procedure: as §1, §2
# [13] = test system: S. simulans; assay: Plate lysis assay; format: cell-based
# Procedure: as §1, §2
# [14] = test system: S. aureus Newman; assay: Plate lysis assay; format: cell-based
# Procedure: as §1, §2
# [15] = test system: S. aureus NRS 383; assay: Plate lysis assay; format: cell-based; conditions: S. aureus NRS 383 (MRSA); 100 pmoles and 2-fold serial dilutions spotted on bacterial lawns
# Procedure: as §1, §2
# [16] = test system: S. aureus NRS 384; assay: Plate lysis assay; format: cell-based; conditions: S. aureus NRS 384 (MRSA); 100 pmoles and 2-fold serial dilutions spotted on bacterial lawns
# Procedure: as §1, §2
# [17] = test system: S. aureus 305; assay: Plate lysis assay; format: cell-based; conditions: 100 pmoles and 2-fold serial dilutions spotted on bacterial lawns
# Procedure: as §1, §2
# [18] = test system: S. aureus Newman cells; assay: Zymogram with S. aureus Newman cells embedded in the gel; format: cell-based; conditions: 5 μg protein
# Procedure: All purified proteins were analyzed with 15% SDS-PAGE, using a Kaleidoscope Precision Plus Protein Standard (BioRad, Hercules, Calif.). For zymograms, a 300 mL culture volume equivalent of live mid-log phase (OD600nm=0.4-0.6) cells of S. aureus strain Newman was embedded in the gel during polymerization. The protein samples were boiled in Laemmli sample buffer (BioRad) with β-mercaptoethanol, and electrophoresed with identical buffers and voltage for one hour in both the SDS-PAGE and the zymogram using a Mini-Protean TETRA gel system (BioRad). SDS gels were Coomassie stained and zymograms were washed in excess water and further incubated in deionized water for 60 min, followed by incubation in 10 mM Tris, pH 8.0 with 150 mM or 300 mM NaCl for 80 min. Areas of clearing in the turbid zymogram gel indicate a lytic protein in the gel.
# [19] = test system: S. aureus Newman cells; assay: Turbidity reduction assay; format: cell-based, Staphylococcus aureus
# Procedure: The turbidity reduction assay measures a decrease in optical density of a bacterial suspension due to lysis of the target bacteria by a lytic protein. The assays were performed in a 96-well dish format essentially as described previously (Donovan et al. 2006, supra). In order to reduce the variability of the assay, frozen stocks of S. aureus Newman substrate cells were prepared in a large batch as described by Becker et al. (2009b, supra). Immediately prior to the assay, the frozen cells were thawed, washed, and resuspended in the desired assay buffer such that when 100 μl of cell suspension were added to 100 μl of lysis buffer+/−protein, the final suspension has an OD600nm of ˜1.0.
# Protein constructs were assayed at a concentration of 1 μM, and the assay was performed at room temperature, measuring the OD600nm at 1 min intervals for 45 min. Buffer without enzyme served as the control. The steepest slopes of the resulting lysis curves, which correspond to the lytic activities of the proteins, were determined by a sliding window over each group of three consecutive time points for the entire 45 min period. Specific activities were expressed as ΔOD600nm/min/μM, and the “no enzyme” control value was subtracted from each experimental value.
# In order to determine the effect of salt concentration on lytic activity, turbidity reduction assays were performed in 10 mM Tris buffers at pH 7.5 with varying NaCl concentrations between 0 mM and 600 mM. Accordingly, the influence of pH was determined by using a series of different buffers with pH values ranging from 3.5 to 10.0. Citrate buffers were used for pH 3.5, 4.5, 5.5, and 6.0, MOPS buffers for pH 6.5, 7.0, and 7.5, Tris buffers for pH 8.0 and 9.0, and Carbonate/bicarbonate buffer for pH 10.0. The concentration of the buffer substance in all buffers used was 20 mM, and the NaCl concentration was 200 mM. To test the effect of bivalent metal ions, assays were performed in 10 mM Tris, 200 mM NaCl, pH 7.5 supplemented with MgCl2, MnCl2, or CaCl2 at different concentrations (0.1 mM, 1 mM, 10 mM), buffer without metal ions serving as control.
# [20] = test system: MRSA strain NRS382; assay: Control of systemic MRSA infection in a murine model; format: in vivo, Balb/c mice
# [21] = 100 pmoles and 2-fold serial dilutions spotted on bacterial lawns
molecule,measurement,setting,value
B1,strains against which lytic activity was displayed,[1]; 16 strains tested,11 out of 16
same,MRSA strains lysed,[1]; four MRSA strains (NRS 382-385),one out of four
same,Lytic activity (lowest amount of protein producing a lysis zone),[2],− (‘−’ means that no lysis was observed at the highest amount tested (100 pmoles))
same,Lytic activity (lowest amount of protein producing a lysis zone),[3],+++ (+++: 25 pmoles)
same,Lytic activity (lowest amount of protein producing a lysis zone),[4],++ (++: 50 pmoles)
same,Lytic activity (lowest amount of protein producing a lysis zone),[5],++ (++: 50 pmoles)
same,Lytic activity (lowest amount of protein producing a lysis zone),[6],+++ (+++: 25 pmoles)
same,Lytic activity (lowest amount of protein producing a lysis zone),[7],+++ (+++: 25 pmoles)
same,Lytic activity (lowest amount of protein producing a lysis zone),[8],− (‘−’ means that no lysis was observed at the highest amount tested (100 pmoles))
same,Lytic activity (lowest amount of protein producing a lysis zone),[9],++ (++: 50 pmoles)
same,Lytic activity (lowest amount of protein producing a lysis zone),[10]; [21],++++++ (++++++: ≦3.125 pmoles)
same,amount of protein causing a lysis zone,[10]; 100 to 3.125 pmoles spotted,lowest amount tested
same,Lytic activity (lowest amount of protein producing a lysis zone),[11],− (‘−’ means that no lysis was observed at the highest amount tested (100 pmoles))
same,Lytic activity (lowest amount of protein producing a lysis zone),[12],+ (+: 100 pmoles)
same,Lytic activity (lowest amount of protein producing a lysis zone),[13]; [21],+ (+: 100 pmoles)
same,amount of protein causing a lysis zone,[13]; 100 to 3.125 pmoles spotted,100 pmol
same,Lytic activity (lowest amount of protein producing a lysis zone),[14]; [21],− (‘−’ means that no lysis was observed at the highest amount tested (100 pmoles))
same,amount of protein causing a lysis zone,[14]; 100 to 3.125 pmoles spotted,not lysed by the highest amount
same,Lytic activity (lowest amount of protein producing a lysis zone),[15],− (‘−’ means that no lysis was observed at the highest amount tested (100 pmoles))
same,Lytic activity (lowest amount of protein producing a lysis zone),[16],+ (+: 100 pmoles)
same,Lytic activity (lowest amount of protein producing a lysis zone),[17],++ (++: 50 pmoles)
same,lysis in zymogram,[18]; after incubation in deionized water for 60 min,faint zones of lysis
same,lysis in zymogram,"[18]; water 60 min, then 10 mM Tris, 150 mM NaCl, pH 8.0 up to 80 min",considerably weaker
same,lysis in zymogram,"[18]; water 60 min, then 10 mM Tris, 300 mM NaCl, pH 8.0 for 80 min",pronounced lytic band
same,NaCl concentration of optimum lytic activity,"[19]; 1 μM protein, 10 mM Tris pH 7.5, NaCl 0-600 mM",300 mM
same,lytic activity in turbidity reduction assays (in words),"[19]; 1 μM protein, different NaCl concentrations",moderate lytic activity
same,increase of lytic activity by Ca2+,"[19]; 10 mM CaCl2, relative to 0 mM, 10 mM Tris, 200 mM NaCl, pH 7.5",three-fold
same,effect of Mg2+ on lytic activity,"[19]; 0.1-10 mM MgCl2, 10 mM Tris, 200 mM NaCl, pH 7.5",not significantly alter
same,effect of Mn2+ on lytic activity,"[19]; 0.1-10 mM MnCl2, 10 mM Tris, 200 mM NaCl, pH 7.5",slightly inhibitory effect
same,% Survival,"[20]; 0 hours, mice infected i.p. with MRSA NRS382, treated 30 min post infection (φSH2 200 μg/mouse i.p.; Vancomycin 375 μg/mouse s.c.; Oxacillin 1250 μg/mouse s.c.)",100%
same,% Survival,"[20]; 4 hours, same infection and treatment",100%
same,% Survival,"[20]; 8 hours, same infection and treatment",100%
same,% Survival,"[20]; 12 hours, same infection and treatment",100%
same,% Survival,"[20]; 16 hours, same infection and treatment",100%
same,% Survival,"[20]; 20 hours, same infection and treatment",100%
same,% Survival,"[20]; 24 hours, same infection and treatment",100%
same,% Survival,"[20]; 28 hours, same infection and treatment",100%
same,% Survival,"[20]; 32 hours, same infection and treatment",100%
same,% Survival,"[20]; 36 hours, same infection and treatment",100%
same,% Survival,"[20]; 40 hours, same infection and treatment",100%
same,% Survival,"[20]; 44 hours, same infection and treatment",100%
same,% Survival,"[20]; 48 hours (end of the experiment), same infection and treatment",100%

# Source: patent publication US8980614B2, “Staphylococcus haemolyticus prophage φSH2 endolysin is lytic for Staphylococcus aureus” (The United States of America, as represented by The …, priority 2012, dated 2015)
